Measurements from the supplement of paper PMC9732359.
± gives the uncertainty stated by the source.

Test: protein stability index of a GFP-peptide fusion (yeast GPS) (PSI 1-4); higher = more stable; sorted into four equal gates, so the index is relative within each strain
Conditions: ubr1∆
Outline: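 The protein stability index of a peptide was calculated by multiplying its read frequency in each gate by that gate's number and adding the products. The peptides were tiled 17-residue stretches of yeast proteins, fused downstream of GFP on a Cherry-expressing plasmid and carried in yeast as a pooled library. Mid-log cultures in leucine-free medium were sorted into four equal gates by GFP/Cherry ratio, and each gate's plasmids were PCR-amplified and Illumina-sequenced.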

Row | Sequence | protein stability index
1 | MSNIVGIEYNRVTNTTS [RPC40] | 2.88 ± 0.096
2 | MSQYQSTMKENKDLSEL [YIL149C/MLP2] | 2.76 ± 0.092
3 | MSRDAPIKADKDYSQIL [RPN5] | 2.67 ± 0.062
4 | MSSEIAYSNTNTNTENE [SNF11] | 3.04 ± 0.2
5 | MSSVQSKILSQAPSELE [RPS7B] | 2.04 ± 0.1
6 | MSTELTVQSERAFQKQP [RPS11A] | 2.75 ± 0.076
7 | MSVPAIAPRRKRLADGL [DIS3] | 3.11 ± 0.063
8 | MTTFYKCVNCGHRWKEN [RPC11] | 2.74 ± 0.071
9 | MTTTIGSPQMLANEERL [RGR1] | 2.63 ± 0.25
10 | MTVKLESITYQKIMILQ [RGR1] | 2.56 ± 0.076
11 | MTVNDQPIEKNGDKMPL [YJR042W/NUP85] | 3.1 ± 0.042
12 | MVLEATVLVIDNSEYSR [RPN10] | 2.2 ± 0.046
13 | MVNTQQPIVTGTSVISM [PRE4] | 1.96 ± 0.2
14 | MVPKRSTIITKAINQEL [YCS4] | 2.24 ± 0.068
15 | NAEKTGKRQVLIRPSSK [RPS22A] | 3.03 ± 0.075
16 | NAEKTGKRQVLLRPSSK [RPS22B] | 2.85 ± 0.038
17 | NAGTDIVMEDHGVLQGT [MED1] | 3 ± 0.067
18 | NAKRSHMMKRWGYQMVW [POP1] | 2.67 ± 0.055
19 | NALWILVDLVSHFSPDI [ITC1] | 1.95 ± 0.051
20 | NANTVFSERAAMFAALQ [SWI1] | 2.38 ± 0.032
21 | NASDALKGRVVEVCLAD [RPS1B] | 3.03 ± 0.054
22 | NASLTIEDEDEPFNAGI [SMC1] | 3.23 ± 0.085
23 | NATVVDSFKYEPLAPGN [YLR335W/NUP2] | 2.94 ± 0.051
24 | NCVNDVLEFCKDYEAKT [POP1] | 3.32 ± 0.051
25 | NDAMAGGFTAYGGADYG [RPO21] | 1.86 ± 0.074
26 | NDDKKTEPDKPAFSFNS [YJL041W/NSP1] | 3.202 ± 0.029

Row | Sequence | protein stability index
27 | NDENDDEFYINVDKNLN [RPN14] | 3.05 ± 0.12
28 | NDFNDLNIDWSTTGDNG [MED2] | 2.73 ± 0.042
29 | NDGNNRTNNVPMIKAEE [NUT1] | 3.77 ± 0.16
30 | NDIAGQPQALQKSGRPV [RPO21] | 2.96 ± 0.073
31 | NDITNLQLSKTPLSIKI [SRB8] | 2.77 ± 0.051
32 | NDKSEVLKVYSMINNSN [SRB8] | 2.63 ± 0.071
33 | NDPEILKKIASIPNLFP [SWI1] | 2.53 ± 0.035
34 | NDWQMLEMLKPCVEDGF [RPB2] | 2.68 ± 0.099
35 | NEETFTVPELEIPTQIY [ARP9] | 2.92 ± 0.063
36 | NEIIRSLSDEVMRNEIR [SIR4] | 2.39 ± 0.049
37 | NEKMQLLKDIFANNLKS [SIR4] | 2.19 ± 0.048
38 | NELTDAIALAVRLGEED [RPN1] | 2.7 ± 0.095
39 | NENDSQAIITERLVEFS [YIL149C/MLP2] | 2.87 ± 0.051
40 | NENFRLVYDVKGRFAVH [RPS4A] | 3.25 ± 0.13
41 | NENNNNSSEKNNNNNNN [MED2] | 2.95 ± 0.07
42 | NENPINKIMTNQINSFW [NUT1] | 2.9 ± 0.042
43 | NENRNTGAGVDVNTNAN [SNF11] | 3.36 ± 0.054
44 | NERRKDLAERASELDES [SMC3] | 2.97 ± 0.054
45 | NESFNRRISSMPGGYFH [YAR002W/NUP60] | 3.04 ± 0.043
46 | NEVIDKLKNENTDLKDI [PCI8] | 3.13 ± 0.041
47 | NFASGDNNTASNMLGSN [RPB3] | 3.24 ± 0.21
48 | NFEYDLSEYDAIQKKDN [YOR098C/NUP1] | 3.23 ± 0.064
49 | NFILEVFGTIIPKISDY [YJL039C/NUP192] | 1.61 ± 0.26
50 | NFIVHSPMLKRIKITAN [GRR1] | 1.19 ± 0.061
51 | NFLSKIRNINVQDALLT [SNF2] | 1.54 ± 0.032
52 | NGGEDTSVENEGPVANL [REC8] | 3.16 ± 0.058

Row | Sequence | protein stability index
53 | NGILPDDELMNWRRLSG [SSN2] | 3.19 ± 0.091
54 | NGMFCQVPSSLIVRAKN [RRP4] | 2.27 ± 0.082
55 | NGQPLNQNFSLTFQPQQ [GRR1] | 3.01 ± 0.043
56 | NGQYAAFVKDMQVYLVP [RPC37] | 1.83 ± 0.12
57 | NHFIFNVESAGAMTPEE [RPC40] | 2.47 ± 0.045
58 | NHKIIARVKAFDRHCNM [SMD2] | 1.93 ± 0.058
59 | NHPELQGITRNVVNYLS [RPC17] | 2.47 ± 0.062
60 | NHSNNDIPTIADEHFWA [BRN1] | 3.24 ± 0.036
61 | NHVKQFYERLDKSTTQL [MED11] | 2.62 ± 0.083
62 | NHVMPLKPVDKLKPMNI [SIN4] | 2.94 ± 0.094
63 | NIDSLKFNELVKLMKNI [BRR2] | 1.8 ± 0.052
64 | NIGTPSFNMAQIPQQLY [SNF5] | 2.04 ± 0.047
65 | NIIESIANFSRAGKYEL [YJR042W/NUP85] | 2.44 ± 0.042
66 | NIKNTNEEATPIPSSET [RRP6] | 2.67 ± 0.056
67 | NILFSLWKLLSTVKVSD [YLR018C/POM34] | 1.55 ± 0.057
68 | NINNSSVAEKEEIRSQI [SWI3] | 2.51 ± 0.059
69 | NISNNLQKALTVKTNDE [RPN8] | 2.88 ± 0.067
70 | NISTNTNIHEPQYINYS [SSN2] | 2.97 ± 0.078
71 | NIYDQLRNKLIESNKLA [RRP6] | 2.22 ± 0.073
72 | NKEMETQRIMTNVIAFA [YLR018C/POM34] | 2.46 ± 0.058
73 | NKGAKAEDVALNEQVKK [NAS6] | 3.1 ± 0.075
74 | NKGRAVYINPSGEKIDF [BRR2] | 3.17 ± 0.098
75 | NKLEKLNSLLTYIKSEI [SMC4] | 2.87 ± 0.036
76 | NKLNFIVDDKQEMIDIL [DIB1] | 3 ± 0.12
